In experiment [1] the target is SF162 gp120 S375N (HIV-1 SF162 (subtype B)). In words: fluorescence polarisation; fluorescently labelled M48 or M48U1 with purified monomeric recombinant SF162 gp120 (concentrations standardised by ELISA with D7324); LJL Analyst reader; Kd by non-linear regression; results given as fold increase in Kd relative to native SF162 gp120; as in ref. 68.
Experiment [2] deals with SF162 gp120 D474N (HIV-1 SF162 (subtype B)). Described as above.
The target of experiment [3] is SF162 gp120 L494V (HIV-1 SF162 (subtype B)). Described as above.
The target of experiment [4] is SF162 gp120 G335R (HIV-1 SF162 (subtype B)). Described as above.
In experiment [5] the target is CD4 mimetic miniprotein M48U1. In words: fluorescence polarization. The conditions noted are these: read off a plot.

On to “CD4 mimetic miniprotein M48U1 (designed binder)”, for which the fold Kd relative to WT SF162 gp120 in experiment [1], in experiment [2], in experiment [3] and in experiment [4] was 1 fold each time.

In the case of “SF162 gp120, wild type (monomeric recombinant) H105Y”, the ratio to parent in experiment [5] worked out at 3.8.

In the case of “SF162 gp120, wild type (monomeric recombinant) S375R”, in experiment [5], the ratio to parent is 1900.

As for “SF162 gp120, wild type (monomeric recombinant) G471R”, in experiment [5], the ratio to parent worked out at 3.8.

For the substance “SF162 gp120, wild type (monomeric recombinant) V255M”, the ratio to parent in experiment [5] worked out at 9.6.

These data come from article PMC3408336.
